Experiments:
[1] = molecular target: T1, decapeptide IHIGPGRAFY derived from HIV-MN (HIV strain MN); experiment: EIA, peptide synthesized on a polyethylene rod (FIG. 6)
T1 peptide: IHIGPGRAFY

[2] = molecular target: decapeptide […] derived from NI53 (HIV strain NI53); experiment: as above
[3] = molecular target: T2, synthetic PND peptide SP-1 (HIV strain MN) (HIV strain MN); experiment: EIA, peptide immobilized on plate (FIG. 4)
T2 peptide: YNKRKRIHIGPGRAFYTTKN

[4] = molecular target: synthetic PND peptide SP-12 (HIV strain NI53) (HIV strain NI53); experiment: EIA, peptide immobilized on plate (FIG. 4)
[5] = molecular target: synthetic peptide SP-30 (5 repeats of GPGR); experiment: EIA, peptide immobilized on plate (FIG. 4)
[6] = molecular target: synthetic PND peptide SP-6 (HIV strain NI16-1) (HIV strain NI16-1); experiment: EIA, peptide immobilized on plate (FIG. 4)
[7] = molecular target: synthetic PND peptide SP-20 (HIV strain NI63-2) (HIV strain NI63-2); experiment: EIA, peptide immobilized on plate (FIG. 4)
[8] = molecular target: synthetic PND peptide SP-9 (HIV strain NI23) (HIV strain NI23); experiment: EIA, peptide immobilized on plate (FIG. 4)
[9] = molecular target: synthetic PND peptide SP-11 (HIV strain NI54-2) (HIV strain NI54-2); experiment: EIA, peptide immobilized on plate (FIG. 4)
gp120 of HIV-MN strain = gp120 of HIV-MN strain (HIV strain MN, UniProt P05877); experiment: cell-based or functional assay
[10] = molecular target: T3, hexapeptide Ile-Gly-Pro-Gly-Arg-Ala (HIV strain MN); experiment: EIA with overlapped peptides on a solid phase (FIG. 7)
T3 peptide: IGPGRA

[11] = molecular target: T4, hexapeptide Gly-Pro-Gly-Arg-Ala-Phe (HIV strain MN); experiment: as above
T4 peptide: GPGRAF

Row | Binder | binding result [1] | binding result [2] | binding result [3] | binding result [4] | binding result [5] | binding result [6] | binding result [7] | binding result [8] | binding result [9] | minimum effective concentration inhibiting viral infection by 100% (gp120 of HIV-MN strain) [µg/mL] | binding result [10] | binding result [11]
1 | monoclonal antibody C25 (antibody, V domains shown) VH: QVQLQQSGAELVRPGTSVKMFCKAAGYTFTNSWIGWFRQRPGHGLEWIGDIYPGGGYTNYNEIFKGKATLTADTSSSTAYMQLSSLTSEDSAIYYCSRGIPGYAMDYWGQGTSVTVSS VL: DIVMTQSPSSLTVTAGEKVTMSCKSSQSLLNSGDQKNYLTWYQQKPGQPPKLLIYWASTGESGVPDRFTGSGSETDFTLTISSVQAEDLAVYYCQNDYSYPWTFGGGTKLEIK | binds | binds | binds | binds | binds | binds | binds | binds | binds | 1 | binds | binds
2 | chimeric C25 antibody (CC25) (antibody, V domains shown) VH: QVQLQQSGAELVRPGTSVKMFCKAAGYTFTNSWIGWFRQRPGHGLEWIGDIYPGGGYTNYNEIFKGKATLTADTSSSTAYMQLSSLTSEDSAIYYCSRGIPGYAMDYWGQGTSVTVSS VL: DIVMTQSPSSLTVTAGEKVTMSCKSSQSLLNSGDQKNYLTWYQQKPGQPPKLLIYWASTGESGVPDRFTGSGSETDFTLTISSVQAEDLAVYYCQNDYSYPWTFGGGTKLEIK |  |  |  |  |  |  |  |  |  | 1 |  | 
3 | humanized C25 antibody (RC25) (antibody, V domains shown) VH: QVQLVQSGAEVKKPGASVKVSCKASGYTFTNSWIGWFRQAPGQGLEWIGDIYPGGGYTNYNEIFKGKATMTADTSTNTAYMELSSLRSEDTAVYYCSRGIPGYAMDYWGQGTLVTVSS VL: DIQMTQSPSSLSASVGDRVTMSCKSSQSLLNSGDQKNYLTWYQQKPGKAPKLLIYWASTGESGVPSRFSGSGSGTDFTFTISSLQPEDIATYYCQNDYSYPWTFGQGTKVEIK |  |  |  |  |  |  |  |  |  | 1 |  | 
